The target in assay [1] is T1, Wilms tumor protein 1 (WT1) peptide on HLA-A*02:01 (human).
T1 peptide: VLDFAPPGA
Nature of the assay: killing.

Assay [2] deals with T1, Wilms tumor protein 1 (WT1) peptide on …. Nature of the assay: multimer staining.

B1: WT137-45 TCR15.1 (TCR, V domains shown)
Valpha: GQNIDQPTEMTATEGAIVQINCTYQTSGFNGLFWYQQHAGEAPTFLSYNVLDGLEEKGRFSSFLSRSKGYSYLLLKELQMKDSASYLCAVRGINDYKLSFGAGTTVTVRA
Vbeta: DGGITQSPKYLFRKEGQNVTLSCEQNLNHDAMYWYRQDPGQGLRLIYYSQIVNDFQKGDIAEGYSVSREKKESFPLTVTSAQKNPTAFYLCASSRDREQESPLHFGNGTRLTVT
B1: in assay [1], the binding result is recorded as “recognises”.

B2: WT137-45 TCR10.1 (TCR, V domains shown)
Valpha: KQEVTQIPAALSVPEGENLVLNCSFTDSAIYNLQWFRQDPGKGLTSLLLIQSSQREQTSGRLNASLDKSSGRSTLYIAASQPGDSATYLCAVKETSGSRLTFGEGTQLTVNP
Vbeta: GAGVSQSPRYKVTKRGQDVALRCDPISGHVSLYWYRQALGQGPEFLTYFNYEAQQDKSGLPNDRFSAERPEGSISTLTIQRTEQRDSAMYRCASSLTGSYEQYFGPGTRLTVT
Turning to B2, the binding result in assay [2] is recorded as “recognises”.

Values taken from patent US12448430B2 (dated 2025).
